The text below walks through data of US20240269318A1.

A value given as a limit tells only on which side of the number the result lay.

Settings in all cases: remark: other sources report otherwise
Assay [1] addresses T1, recombinant human alpha-synuclein aggregates (ab218819) (human), P37840. Kind of assay: ELISA on AS aggregates; antibody pre-heated 1 hr at 65 °C, measured immediately. In general terms: ELISA stands for enzyme-linked immunosorbent assay.
For assay [2], the target named is T1, recombinant human alpha-synuclein …. Kind of assay: super-resolution microscopy; Cy3-SynO4 and Alexa Fluor 488-AS aggregates in differentiated SH-SY5Y cells.
The target is the same in assay [3]. Kind of assay: ELISA on AS aggregates; antibody pre-heated 1 hr at 65 °C, stored overnight at 4 °C, measured the next day.
The target is the same in assay [4]. Kind of assay: super-resolution imaging in differentiated SH-SY5Y cells loaded with AS aggregates; SynO4 delivered by TF-liposomes.

B1: SynO4 antibody (Creative Biolabs, USA) (antibody)
chain 1: EVQLVESGGGLVQPKGSLKLSCAASGFTFNTYAMHWVRQAPGKGLEWVARIRSKSSNYATYYADSVKDRFTISRDDSQSMLYLQMNNLKTEDTAMYYCVRPLKWYFDVWGTGTTVTVSS
chain 2: QIVLTQSPAILSASPGEKVTMTCSASSTVNYMHWYQQKSGTSPKIWIYDTSKLASGVPARFSGSGSWTSYSLTISSMEAEDAATYYCQQWNSNPPTFGAGTKLELK
For B1, the maximal activity amounted to 22% in assay [1] and 44% in assay [3]. Also, the colocalization in assay [2] was determined as 75%. The detection between antibody and aggregates in assay [4] is > 80%.
